From patent publication US20200024360A1 (Janssen / Centocor, published 2020) come the findings set out here.

Assay [1] concerns the target T1, cynomolgus CD3ε on primary cynomolgus CD4+ T cells (cynomolgus monkey, UniProt Q95LI5 22-198).
T1 construct: whole, on cells
Description: FACS, primary cynomolgus CD4+ T cells. A general note: In flow cytometry, cells or beads pass a laser one at a time.

Assay [2] addresses T2, Cynomolgous monkey PSMA, full length (Macaca fascicularis, UniProt Q04609 1-750 (human entry)).
T2 construct: On transfected HEK293F cells; also called cyno PSMA; EHH56646.1
T2 chain: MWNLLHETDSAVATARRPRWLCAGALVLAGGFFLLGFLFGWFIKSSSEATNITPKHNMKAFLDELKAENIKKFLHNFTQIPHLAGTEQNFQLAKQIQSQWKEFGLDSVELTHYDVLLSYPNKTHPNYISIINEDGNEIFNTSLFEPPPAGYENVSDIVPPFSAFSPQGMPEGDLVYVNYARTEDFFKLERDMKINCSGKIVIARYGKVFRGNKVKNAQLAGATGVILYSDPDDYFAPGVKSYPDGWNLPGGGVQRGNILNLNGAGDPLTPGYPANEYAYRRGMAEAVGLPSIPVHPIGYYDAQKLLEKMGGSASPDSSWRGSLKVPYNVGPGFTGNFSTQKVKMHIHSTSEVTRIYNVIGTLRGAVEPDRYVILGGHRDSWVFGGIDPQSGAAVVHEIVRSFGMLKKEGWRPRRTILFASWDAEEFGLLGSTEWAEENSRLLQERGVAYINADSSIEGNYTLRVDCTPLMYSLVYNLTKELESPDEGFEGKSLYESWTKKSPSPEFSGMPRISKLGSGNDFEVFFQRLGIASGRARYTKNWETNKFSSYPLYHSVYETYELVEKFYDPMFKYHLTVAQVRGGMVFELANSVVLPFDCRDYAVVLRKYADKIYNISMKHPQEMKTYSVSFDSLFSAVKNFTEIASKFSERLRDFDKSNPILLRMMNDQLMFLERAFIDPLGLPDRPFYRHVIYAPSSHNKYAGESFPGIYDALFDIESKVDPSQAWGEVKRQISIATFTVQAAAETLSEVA
Description: flow cytometry, mammalian Fab supernatant titrated on cyno PSMA (PSMG5) HEK cells, anti-human kappa-RPE. As to the method:
Plates were read on a BD FACS Array flow cytometer. FACS data was analyzed in FlowJo software by live gating the healthy population of cells using forward scatter and side scatter, and then analyzing the cells within this gate for PE staining. Mean fluorescence intensity (MFI) was calculated and exported into Microsoft Excel. […] Fabs were sequenced and moved forward for cloning into mammalian expression vector for rescreening. True positives were selected from the binding of mammalian cell expressed Fab supernatants to PSMA-expressing cell lines.
Binding profiles among hits were compared across cell lines expressing different species of PSMA.

T1 sequence (Q95LI5 22-198): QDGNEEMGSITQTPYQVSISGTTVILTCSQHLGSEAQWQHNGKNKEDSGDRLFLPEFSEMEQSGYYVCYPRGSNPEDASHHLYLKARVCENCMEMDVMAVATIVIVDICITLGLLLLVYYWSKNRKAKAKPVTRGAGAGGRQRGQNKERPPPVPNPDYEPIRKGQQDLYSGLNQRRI

B1: G11 (antibody, human IgG1, kappa, V domains shown)
VH: EVQLLESGGGLVQPGGSLRLSCAASGFTFSSYGMSWVRQAPGKGLEWVSGINGGGGSKYYADSVKGRFTISRDNSKNTLYLQMNSLRAEDTAVYYCAKTSAQRFDYWGQGTLVTVSS
VL: DIQMTQSPSSLSASVGDRVTITCRASQSISSYLNWYQQKPGAPKLLIYAASSLQSGVPSRFSGSGSGTDFTLTISSLQPEDFATYYCQQSYSLPLTFGQGTKVEIKR
notes: In-house phage-derived anti-CD3 control; also called GI
On to B1, for which the binding result in assay [1] is listed as “no binding”.

B2: PSMB49 (Fab, V domains shown)
VH: QVQLVQSGAEVKKPGSSVKVSCKASGGTFSSYAISWVRQAPGQGLEWMGGIIPIFGTANYAQKFQGRVTITADESTSTAYMELSSLRSEDTAVYYCARASRVWHASYGYLDYWGQGTLVTVSS
VL: EIVLTQSPATLSLSPGERATLSCRASQSVSKWLAWYQQKPGQAPRLLIYDASNRATGIPARFSGSGSGTDFTLTISSLEPEDFAVYYCQQRFTAPWTFGQGTKVEIK
notes: Fab; also called PSMM50; Fab of mAb PSMB121
For orientation: EC50 (read off the curve) means the concentration giving half of the maximal effect. With B2, the “EC50 (read off the curve)” value in assay [2] is around 0.2 µg/mL.
